Measurements from paper PMC4434323.

Legend:
[1] = molecular target: pag-3 (F45B8.4) (Caenorhabditis elegans) (UniProt G5EDE1)
[2] = molecular target: T1, lsy-27 (F47H4.1) (Caenorhabditis elegans) (UniProt O45526)
T1 sequence: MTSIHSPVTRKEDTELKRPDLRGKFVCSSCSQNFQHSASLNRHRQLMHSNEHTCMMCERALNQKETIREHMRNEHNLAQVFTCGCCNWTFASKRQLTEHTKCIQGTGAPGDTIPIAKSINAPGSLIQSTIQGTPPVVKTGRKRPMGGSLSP

[3] = molecular target: T2, ztf-29 (Y66D12A.12) (Caenorhabditis elegans) (UniProt Q95Q03)
T2 sequence: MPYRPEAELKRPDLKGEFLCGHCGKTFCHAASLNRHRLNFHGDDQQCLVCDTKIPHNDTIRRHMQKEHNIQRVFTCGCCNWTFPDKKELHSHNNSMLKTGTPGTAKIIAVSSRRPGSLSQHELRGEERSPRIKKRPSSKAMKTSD

[4] = molecular target: T3, ham-2 (C07A12.1) (Caenorhabditis elegans) (UniProt H2KYH4)
T3 sequence: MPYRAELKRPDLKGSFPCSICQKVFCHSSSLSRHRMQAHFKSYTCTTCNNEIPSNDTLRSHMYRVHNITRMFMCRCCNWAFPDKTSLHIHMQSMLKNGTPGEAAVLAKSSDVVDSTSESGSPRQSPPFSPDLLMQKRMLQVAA

[5] = molecular target: lin-48 (F34D10.5) (Caenorhabditis elegans) (UniProt G5EDU6)
[6] = molecular target: T4, Y44A6D.3 (Y44A6D.3) (Caenorhabditis elegans) (UniProt Q9XXE0)
T4 sequence: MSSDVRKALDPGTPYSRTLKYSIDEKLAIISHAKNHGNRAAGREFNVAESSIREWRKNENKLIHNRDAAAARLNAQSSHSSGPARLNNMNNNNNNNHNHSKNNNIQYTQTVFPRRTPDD

lin-48 (F34D10.5) (Caenorhabditis elegans), sequence (G5EDU6 83-280): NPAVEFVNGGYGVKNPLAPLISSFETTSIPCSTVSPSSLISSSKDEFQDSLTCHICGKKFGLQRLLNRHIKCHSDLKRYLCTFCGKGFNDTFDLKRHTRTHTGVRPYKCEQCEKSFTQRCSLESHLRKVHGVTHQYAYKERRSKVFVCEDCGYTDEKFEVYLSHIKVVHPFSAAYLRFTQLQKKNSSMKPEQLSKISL
pag-3 (F45B8.4) (Caenorhabditis elegans), sequence (G5EDE1 76-311): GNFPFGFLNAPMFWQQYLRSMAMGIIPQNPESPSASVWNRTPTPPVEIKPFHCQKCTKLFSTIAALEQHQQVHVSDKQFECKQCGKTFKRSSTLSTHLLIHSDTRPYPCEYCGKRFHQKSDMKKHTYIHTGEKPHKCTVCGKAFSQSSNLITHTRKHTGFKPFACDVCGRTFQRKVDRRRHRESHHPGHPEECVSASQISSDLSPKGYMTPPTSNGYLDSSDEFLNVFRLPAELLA

| Sequence | binding signal (PBM E-score (-0.5 to 0.5)) [1] | binding signal (PBM E-score (-0.5 to 0.5)) [2] | further results |
| --- | --- | --- | --- |
| AAAATCTG (double strand) [8-mer AAAATCTG] | 0.491 | – | – |
| AAAGCTTC (double strand) [8-mer AAAGCTTC] | – | 0.492 | binding signal (PBM E-score (-0.5 to 0.5)) [3]: 0.486 |
| AAAGCTTT (double strand) [8-mer AAAGCTTT] | – | 0.491 | binding signal (PBM E-score (-0.5 to 0.5)) [4]: 0.478; binding signal (PBM E-score (-0.5 to 0.5)) [3]: 0.496 |
| AAATCACA (double strand) [8-mer AAATCACA] | 0.49 | – | – |
| AAATCACG (double strand) [8-mer AAATCACG] | 0.492 | – | – |
| AAATCTCA (double strand) [8-mer AAATCTCA] | 0.487 | – | – |
| AAATCTGA (double strand) [8-mer AAATCTGA] | 0.486 | – | – |
| AAATCTGG (double strand) [8-mer AAATCTGG] | 0.493 | – | – |
| AAATCTGT (double strand) [8-mer AAATCTGT] | 0.49 | – | – |
| AACCGTTA (double strand) [8-mer AACCGTTA] | – | – | binding signal (PBM E-score (-0.5 to 0.5)) [5]: 0.49 |
| AAGCTTAA (double strand) [8-mer AAGCTTAA] | – | 0.493 | binding signal (PBM E-score (-0.5 to 0.5)) [4]: 0.493; binding signal (PBM E-score (-0.5 to 0.5)) [3]: 0.494 |
| AAGCTTCA (double strand) [8-mer AAGCTTCA] | – | 0.497 | binding signal (PBM E-score (-0.5 to 0.5)) [3]: 0.489 |
| AAGCTTCT (double strand) [8-mer AAGCTTCT] | – | 0.496 | binding signal (PBM E-score (-0.5 to 0.5)) [3]: 0.49 |
| AAGCTTTA (double strand) [8-mer AAGCTTTA] | – | 0.49 | binding signal (PBM E-score (-0.5 to 0.5)) [4]: 0.482; binding signal (PBM E-score (-0.5 to 0.5)) [3]: 0.494 |
| AATCACAG (double strand) [8-mer AATCACAG] | 0.491 | – | – |
| AATCACTG (double strand) [8-mer AATCACTG] | 0.49 | – | – |

| Sequence | binding signal (PBM E-score (-0.5 to 0.5)) [1] | binding signal (PBM E-score (-0.5 to 0.5)) [2] | further results |
| --- | --- | --- | --- |
| AATCAGTG (double strand) [8-mer AATCAGTG] | 0.491 | – | – |
| AATCTCAG (double strand) [8-mer AATCTCAG] | 0.49 | – | – |
| AATCTGTG (double strand) [8-mer AATCTGTG] | 0.487 | – | – |
| ACCGCGCA (double strand) [8-mer ACCGCGCA] | – | – | binding signal (PBM E-score (-0.5 to 0.5)) [6]: 0.495 |
| ACCGTTAC (double strand) [8-mer ACCGTTAC] | – | – | binding signal (PBM E-score (-0.5 to 0.5)) [5]: 0.497 |
| ACCGTTAG (double strand) [8-mer ACCGTTAG] | – | – | binding signal (PBM E-score (-0.5 to 0.5)) [5]: 0.489 |
| ACCGTTAT (double strand) [8-mer ACCGTTAT] | – | – | binding signal (PBM E-score (-0.5 to 0.5)) [5]: 0.493 |
| ACTGCGCA (double strand) [8-mer ACTGCGCA] | – | – | binding signal (PBM E-score (-0.5 to 0.5)) [6]: 0.498 |
| AGCTTCAC (double strand) [8-mer AGCTTCAC] | – | 0.493 | – |
| AGCTTCAG (double strand) [8-mer AGCTTCAG] | – | 0.491 | – |
| AGCTTCAT (double strand) [8-mer AGCTTCAT] | – | 0.494 | – |
| AGCTTCTG (double strand) [8-mer AGCTTCTG] | – | 0.491 | – |
| AGTAACGG (double strand) [8-mer AGTAACGG] | – | – | binding signal (PBM E-score (-0.5 to 0.5)) [5]: 0.487 |
| ATAACGGA (double strand) [8-mer ATAACGGA] | – | – | binding signal (PBM E-score (-0.5 to 0.5)) [5]: 0.485 |
| ATAACGGG (double strand) [8-mer ATAACGGG] | – | – | binding signal (PBM E-score (-0.5 to 0.5)) [5]: 0.494 |
